Measured values reported in patent US6428997.

Legend:
[1] = biological target: methionyl human growth hormone (UniProt P01241)
[2] = test system: T1, leucyl oligopeptide of SEQ ID NO: 2
T1 sequence: LFPTEPS

[3] = test system: T2, methionyl oligopeptide of SEQ ID NO: 1 (Met-Phe-Pro-Thr-Glu-Pro-Ser)
T2 sequence: MFPTEPS

methionyl human growth hormone, sequence (P01241 other isoform, or with tags, fused parts or gaps): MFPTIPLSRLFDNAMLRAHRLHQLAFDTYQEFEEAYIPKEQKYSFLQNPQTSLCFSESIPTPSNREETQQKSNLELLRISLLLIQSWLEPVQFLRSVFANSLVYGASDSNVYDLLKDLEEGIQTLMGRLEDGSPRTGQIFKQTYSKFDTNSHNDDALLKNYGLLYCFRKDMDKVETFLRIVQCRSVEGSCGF

Substance: aminopeptidase from Bacillus licheniformis (purified from Bacillus licheniformis ATCC 12759)
- removal of N-terminal methionine (N-terminal sequencing of the recovered HGH) [1]: remove N-terminal methionine of methionyl HGH completely
- removal of N-terminal methionine, large scale (N-terminal sequencing of the recovered HGH) [1]: HGH produced by the above process had phenylalanine at the N-terminus due to methionine removal
- Kcat/Km [2]: 1.63e+06 M⁻¹ s⁻¹
- Km [2]: 172 µM
- kcat [2]: 276 s⁻¹
- Kcat/Km [3]: 56100 M⁻¹ s⁻¹
- Km [3]: 387 µM
- kcat [3]: 21.1 s⁻¹
